How the values were obtained:
[1] = target: USP7 MATH; assay: FP
[2] = target: ATG8 domain of MAP1LC3C (human) (UniProt Q9BXW4); assay: FP
[3] = target: ATG9A FITC-…
[4] = target: USP7 (human) (UniProt Q93009)
[5] = target: AP2M1 (human) (UniProt Q96CW1)
[6] = target: MAP1LC3C ATG8 domain (human) (UniProt Q9BXW4)
[7] = target: SQSTM1 FITC-…
[8] = target: FITC-SQSTM1 peptide 335-344 (human)
[9] = target: FITC-MDM2 peptide (human)
[10] = target: G3BP2 NTF2 domain (human) (UniProt Q9UN86)
[11] = target: G3BP1 NTF2 domain (human) (UniProt Q13283)
Chain of G3BP1 NTF2 domain (human) (Q13283 11-133): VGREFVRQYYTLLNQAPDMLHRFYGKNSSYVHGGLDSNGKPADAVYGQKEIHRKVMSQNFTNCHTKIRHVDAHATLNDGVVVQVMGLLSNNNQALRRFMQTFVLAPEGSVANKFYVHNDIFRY

Chain of AP2M1 (human) (Q96CW1 whole entry, the tested form may be a part): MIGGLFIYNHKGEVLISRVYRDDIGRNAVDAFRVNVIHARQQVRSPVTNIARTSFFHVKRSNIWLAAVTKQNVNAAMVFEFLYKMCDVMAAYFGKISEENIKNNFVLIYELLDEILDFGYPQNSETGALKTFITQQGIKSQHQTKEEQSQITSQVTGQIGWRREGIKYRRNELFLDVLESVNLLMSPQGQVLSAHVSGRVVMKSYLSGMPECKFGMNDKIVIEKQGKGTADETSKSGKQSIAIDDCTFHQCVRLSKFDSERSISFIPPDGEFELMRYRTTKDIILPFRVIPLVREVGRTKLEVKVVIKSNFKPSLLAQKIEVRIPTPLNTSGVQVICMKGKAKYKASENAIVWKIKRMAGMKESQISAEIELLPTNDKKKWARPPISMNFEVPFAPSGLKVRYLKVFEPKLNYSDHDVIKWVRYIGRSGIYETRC
Chain of G3BP2 NTF2 domain (human) (Q9UN86 11-133): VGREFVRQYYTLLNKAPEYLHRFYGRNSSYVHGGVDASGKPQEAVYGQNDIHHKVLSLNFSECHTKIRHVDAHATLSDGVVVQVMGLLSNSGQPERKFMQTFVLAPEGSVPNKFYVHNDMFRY
Chain of USP7 (human) (Q93009 whole entry): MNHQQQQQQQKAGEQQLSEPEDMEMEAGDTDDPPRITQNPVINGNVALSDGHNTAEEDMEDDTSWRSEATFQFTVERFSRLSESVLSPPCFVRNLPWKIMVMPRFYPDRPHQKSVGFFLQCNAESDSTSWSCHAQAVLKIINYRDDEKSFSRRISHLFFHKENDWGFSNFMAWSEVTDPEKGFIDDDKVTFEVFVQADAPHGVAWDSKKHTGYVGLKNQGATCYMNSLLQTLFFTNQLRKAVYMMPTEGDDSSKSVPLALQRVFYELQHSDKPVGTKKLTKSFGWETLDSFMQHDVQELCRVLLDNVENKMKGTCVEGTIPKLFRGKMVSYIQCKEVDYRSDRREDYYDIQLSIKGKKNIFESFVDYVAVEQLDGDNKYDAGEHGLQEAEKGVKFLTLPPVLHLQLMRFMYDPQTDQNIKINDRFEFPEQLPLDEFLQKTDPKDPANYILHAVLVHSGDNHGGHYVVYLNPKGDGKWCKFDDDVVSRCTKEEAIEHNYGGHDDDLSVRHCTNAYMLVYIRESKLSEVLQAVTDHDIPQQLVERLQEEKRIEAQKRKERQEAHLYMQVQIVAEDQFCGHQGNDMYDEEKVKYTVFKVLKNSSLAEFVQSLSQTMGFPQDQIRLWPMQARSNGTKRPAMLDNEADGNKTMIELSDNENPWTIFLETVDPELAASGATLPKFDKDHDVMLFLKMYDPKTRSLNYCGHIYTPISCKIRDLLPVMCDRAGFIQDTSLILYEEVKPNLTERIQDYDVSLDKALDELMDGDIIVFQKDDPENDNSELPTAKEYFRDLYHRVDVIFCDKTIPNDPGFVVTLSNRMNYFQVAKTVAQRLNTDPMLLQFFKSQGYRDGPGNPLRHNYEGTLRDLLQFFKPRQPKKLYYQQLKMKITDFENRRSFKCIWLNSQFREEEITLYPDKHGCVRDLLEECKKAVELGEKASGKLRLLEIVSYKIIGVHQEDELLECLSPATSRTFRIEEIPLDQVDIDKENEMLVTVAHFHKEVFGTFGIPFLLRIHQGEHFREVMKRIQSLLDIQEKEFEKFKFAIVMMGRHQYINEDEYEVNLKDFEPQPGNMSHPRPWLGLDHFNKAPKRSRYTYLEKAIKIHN
Chain of MAP1LC3C ATG8 domain (human) (Q9BXW4 1-126): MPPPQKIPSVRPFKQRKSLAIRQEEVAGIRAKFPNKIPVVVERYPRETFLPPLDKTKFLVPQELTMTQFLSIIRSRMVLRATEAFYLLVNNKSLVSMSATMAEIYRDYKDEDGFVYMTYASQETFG
Chain of ATG8 domain of MAP1LC3C (human) (Q9BXW4 whole entry, the tested form may be a part): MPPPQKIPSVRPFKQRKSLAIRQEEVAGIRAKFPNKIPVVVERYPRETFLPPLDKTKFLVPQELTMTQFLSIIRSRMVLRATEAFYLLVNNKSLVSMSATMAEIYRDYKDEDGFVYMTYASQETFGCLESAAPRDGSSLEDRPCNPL

SARS-CoV N 405-419
Kd [1]: 96 µM

SARS-CoV-2 NSP3 2019-2034
Kd [1]: 37 µM

SARS-CoV NSP3 2019-2038
Kd [2]: 28 µM

SARS-CoV-2 NSP4 3248-3263
Kd [1]: 67 µM

AP2M1 (from UniProt Q96CW1 1-435) (domain or fragment)
Kd [3]: 1.1 µM

SARS-CoV NSP4 3248-3263
Kd [1]: 67 µM

N peptide 206-220 (Sars-CoV)
IC50 [4]: 1500 µM | Ki [4]: 220 µM

N peptide 353-367 (Sars-CoV2/Sars-CoV)
IC50 [5]: 1530 µM | Ki [5]: 530 µM

SARS-CoV NSP1 161-176
Kd [1]: 280 µM

SARS-CoV-2 N 405-419
Kd [1]: 150 µM

NSP3 peptide 1996-2011 (Sars-CoV)
IC50 [6]: 200 µM | Ki [6]: 28 µM | IC50 [4]: 210 µM | Ki [4]: 29 µM

NSP4 peptide 3248-3263 (Sars-CoV2/Sars-CoV)
IC50 [4]: 480 µM | Ki [4]: 67 µM

MAP1LC3C ATG8 domain (from UniProt Q9BXW4 1-126) (domain or fragment)
Kd [7]: 1.1 µM | Kd [8]: 1.1 µM

USP7 (from UniProt Q93009 1-1102) (domain or fragment)
Kd [9]: 0.49 µM

NSP3 peptide 1796-1809 (SFV, Semliki-Forest-Virus)
IC50 [10]: 11 µM

NSP3 peptide 1785-1796 (SFV, Semliki-Forest-Virus)
IC50 [11]: 23 µM | IC50 [10]: 13 µM

NSP14 peptide 6498-6512 (Mers)
Ki [5]: 3 µM

SARS-CoV N 205-219
Kd [1]: 220 µM

NSP1 peptide 161-177 (Sars-CoV)
IC50 [4]: 2000 µM | Ki [4]: 280 µM

SARS-CoV-2 NSP3 2019-2038
Kd [2]: 210 µM

SARS-CoV NSP3 2019-2034
Kd [1]: 29 µM

NSP3 peptide 1785-1809 (SFV, Semliki-Forest-Virus)
IC50 [11]: 0.0044 µM | IC50 [10]: 0.0019 µM | Ki [10]: 0.15 µM

N peptide 406-422 (Sars-CoV)
IC50 [4]: 690 µM | Ki [4]: 96 µM
